We go through three molecules from patent CN117043185A (NUMAB INNOVATION AG, dated 2023).

The assay concerns the target T1, human ROR1 expressed on cells (MDA-MB-231, JIMT-1, CLL patient cells) (human, UniProt Q01973 30-937).
T1 construct: whole, on cells; also called hROR1; plasma-membrane human ROR1
The assay is described as follows: flow cytometry on MDA-MB-231 cells.

T1 sequence (Q01973 30-937): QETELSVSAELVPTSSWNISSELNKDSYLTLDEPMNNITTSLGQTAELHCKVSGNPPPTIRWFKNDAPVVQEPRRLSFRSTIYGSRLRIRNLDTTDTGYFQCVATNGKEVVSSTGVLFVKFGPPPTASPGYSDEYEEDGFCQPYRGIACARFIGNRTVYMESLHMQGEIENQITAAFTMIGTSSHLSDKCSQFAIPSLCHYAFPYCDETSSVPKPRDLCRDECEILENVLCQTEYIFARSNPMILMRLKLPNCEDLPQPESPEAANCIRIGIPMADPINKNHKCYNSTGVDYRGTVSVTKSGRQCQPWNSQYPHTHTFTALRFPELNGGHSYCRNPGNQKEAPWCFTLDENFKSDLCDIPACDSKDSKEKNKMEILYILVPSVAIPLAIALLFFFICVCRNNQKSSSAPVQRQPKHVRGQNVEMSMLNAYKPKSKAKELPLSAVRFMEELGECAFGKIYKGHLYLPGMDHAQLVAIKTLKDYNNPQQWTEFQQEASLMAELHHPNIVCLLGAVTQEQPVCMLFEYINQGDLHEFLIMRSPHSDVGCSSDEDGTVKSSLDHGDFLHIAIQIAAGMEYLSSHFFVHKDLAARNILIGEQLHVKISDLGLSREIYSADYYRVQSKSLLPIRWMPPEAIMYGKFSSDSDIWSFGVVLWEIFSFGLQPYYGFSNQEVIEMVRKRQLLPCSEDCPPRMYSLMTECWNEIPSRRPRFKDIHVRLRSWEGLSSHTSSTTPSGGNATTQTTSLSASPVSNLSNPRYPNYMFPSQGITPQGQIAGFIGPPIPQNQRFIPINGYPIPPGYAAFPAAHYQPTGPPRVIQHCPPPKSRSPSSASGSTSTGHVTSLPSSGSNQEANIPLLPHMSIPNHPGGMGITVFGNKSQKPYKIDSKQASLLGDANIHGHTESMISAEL

B1: PRO2060 (scFv, V domains shown)
VH: QSQVVESGGGLVQPGGSLRLSCAVSGFDLSSYAVSWVRQAPGKGLEWIGIIYPRANTYYASWAKGRFTISKDNSKNTVYLQMNSLRAEDTAVYFCARDRYDSGAYLYTTYFNLWGQGTLVTVSS
VL: DVQMTQSPSSLSASVGDRVTITCRASENIYSGLAWYQQKPGKPPKLLIYRASTLASGVSSRFSGSGSGTDFTLTISSLQPEDFATYYCQGGYYSSSSTYIAFGTGTKVTVLG
For B1, the “fold lower apparent binding affinity than reference Fab PRO2213” value is approximately 3 fold.

B2: PRO2062 (scFv, V domains shown)
VH: QSQLVESGGGLVQPGGSLRLSCAVSGLSLSRNAMSWVRQAPGKGLEWIGIILTSGSTYYASWAKGRFTISKDNSKNTVYLQMNSLRAEDTAVYFCVRGIASSSLKSFWGQGTLVTVSS
VL: AQQLTQSPSSLSASVGDRVTITCQASQNVWNNNYLSWFQQKPGKPPKLLIVTASTLASGVSSRFSGSGSGTDFTLTISSLQPEDFATYYCAGGFSGEIRAFGTGTKVTVLG
As to B2, the “fold higher apparent binding affinity than reference Fab PRO2213” value was approximately 3 fold.

B3: PRO2271 (scFv, V domains shown)
VH: QSQLVESGGGLVQPGGSLRLSCAVSGIDLSRNAMSWVRQAPGKGLEWIGIILTSGSTYYASWAKGRFTISKTSTTLDLQMNSLRAEDTAVYFCVRGIASSSLKSFWGQGTLVTVSS
VL: AQQLTQSPSSLSASVGDRVTITCQASQNVWNNNYLSWFQQKPGKPPKLLIVTASTLASGVSSRFSGSGSGTDFTLTISSLQPEDFATYYCAGGFSGEIRAFGTGTKVTVLG
As for B3, the “fold lower apparent binding affinity than original scFv PRO2062” value is approximately 2 fold.
